Laboratory results from patent publication US20250250321A1.

Target: immunoglobulin G (IgG) obtained from human serum (human)
Test: human serum IgG (2 mg/mL) bound to Protein A on latex beads, washed, read by SDS-PAGE

Protein A polymer (UniStac linear multimeric polymer of Protein A) immobilized on latex beads
increase of binding activity compared to beads with the Protein A monomer: > 15%
